Values of other authors as cited in publication PMC2983480.
pKd: −log10 of the molar value.

Molecular target: Arp2/3 complex (Bos taurus) (UniProt A7MB62)

- pKd: 6.05
Substance: WASp VCA (from UniProt P42768)
